± gives the uncertainty stated by the source.

The labels stand for the following.
B1: E3 ubiquitin-protein ligase NEDD4-like, residues 539 to 589; numbered along this chain, Q96PU5 (parent)
chain: KTSLNPNDLGPLPPGWEERIHLDGRTFYIDHNSKITQWEDPRLQNPAITGP

This data set covers variants of B1. Description: abundance fitness (aPCA) (normalised: wild type 0, dead -1); higher = more abundant; growth selection in yeast, the domain comes from the species named. The settings on record: Homo sapiens.
Regarding E39I, the abundance fitness is -0.251 ± 0.086.

Turning to E39L, the abundance fitness is -0.313 ± 0.057.

On to E39Y, for which the abundance fitness is -0.412 ± 0.073.

Turning to D23C, the abundance fitness is -0.135 ± 0.057.

On to D23L, for which the abundance fitness was -0.548 ± 0.068.

For the variant D23P, the abundance fitness was -0.445 ± 0.069.

Turning to D23V, the abundance fitness was -0.876 ± 0.055.

For H31S, the abundance fitness was -0.08 ± 0.06.

As for H31L, the abundance fitness is -0.04 ± 0.044.

Turning to H31K, the abundance fitness is 0.11 ± 0.072.

As to N7A, the abundance fitness is -0.01 ± 0.058.

For the variant N7Y, the abundance fitness is -0.395 ± 0.099.

For the variant N7E, the abundance fitness was found to be 0.001 ± 0.085.

With N7S, the abundance fitness is -0.042 ± 0.048.

For N7W, the abundance fitness is -0.4 ± 0.056.

For N7D, the abundance fitness was 0.044 ± 0.08.

For the variant S3G, the abundance fitness is -0.353 ± 0.041.

On to S3M, for which the abundance fitness is -0.193 ± 0.084.

Take A47M: the abundance fitness is -0.212 ± 0.072.

With D30F, the abundance fitness is -0.546 ± 0.17.

Turning to D30N, the abundance fitness came out at 0.166 ± 0.049.

Consider D30V, for which the abundance fitness was -1.03 ± 0.049.

As to T26F, the abundance fitness was -0.287 ± 0.08.

In the case of T26Y, the abundance fitness was -0.105 ± 0.094.

For T26H, the abundance fitness is 0.084 ± 0.079.

Take T26I: the abundance fitness is -0.131 ± 0.098.

In the case of T26A, the abundance fitness is -0.065 ± 0.045.

Take T26M: the abundance fitness is -0.125 ± 0.065.

Turning to I35K, the abundance fitness worked out at 0.065 ± 0.074.

K1W: the abundance fitness was -1.08 ± 0.2.

K1R: the abundance fitness was -0.12 ± 0.097.

For the variant K1L, the abundance fitness is -0.313 ± 0.045.

For the variant K1I, the abundance fitness was -0.062 ± 0.2.

Consider K1S, for which the abundance fitness was -0.19 ± 0.068.

In the case of L43R, the abundance fitness was -0.116 ± 0.056.

Turning to L43C, the abundance fitness was -0.11 ± 0.078.

For L43W, the abundance fitness was -0.333 ± 0.073.

For D8Q, the abundance fitness was -0.189 ± 0.053.

Regarding D8L, the abundance fitness was -0.304 ± 0.044.

With W16E, the abundance fitness was -0.393 ± 0.081.

With W16S, the abundance fitness is -0.471 ± 0.065.

Consider W16P, for which the abundance fitness was -0.385 ± 0.081.

On to W16A, for which the abundance fitness is -0.342 ± 0.045.

As to P6H, the abundance fitness is -0.237 ± 0.12.

In the case of P6N, the abundance fitness was 0.374 ± 0.1.

As for E18A, the abundance fitness was -0.071 ± 0.042.

On to I20F, for which the abundance fitness is -0.246 ± 0.092.

Turning to I20S, the abundance fitness worked out at 0.047 ± 0.064.

With I20M, the abundance fitness was -0.131 ± 0.076.

Turning to G24R, the abundance fitness was -0.56 ± 0.057.

Regarding G24N, the abundance fitness is -0.639 ± 0.12.

With I48T, the abundance fitness is 0.051 ± 0.21.

For I48F, the abundance fitness is -0.306 ± 0.43.

Turning to I48M, the abundance fitness is -0.176 ± 0.21.

In the case of Q37T, the abundance fitness stood at 0.21 ± 0.067.

Consider Q37G, for which the abundance fitness was -0.723 ± 0.047.

For N45Y, the abundance fitness was -0.157 ± 0.1.

N45I: the abundance fitness was -0.099 ± 0.088.

Take N45A: the abundance fitness was -0.028 ± 0.074.

For N45K, the abundance fitness was found to be 0.029 ± 0.047.

Consider N45E, for which the abundance fitness is -0.046 ± 0.053.

Consider Y28S, for which the abundance fitness is -0.399 ± 0.046.

For the variant Y28D, the abundance fitness is -0.399 ± 0.058.

Take Y28L: the abundance fitness is -0.703 ± 0.066.

As to Y28P, the abundance fitness was -0.242 ± 0.065.

In the case of Y28H, the abundance fitness was -0.636 ± 0.11.

As to Y28R, the abundance fitness was -0.536 ± 0.061.

Regarding K34Y, the abundance fitness is -0.39 ± 0.091.

Turning to K34D, the abundance fitness was -0.063 ± 0.082.

Take K34A: the abundance fitness was -0.176 ± 0.071.

On to K34M, for which the abundance fitness was -0.105 ± 0.083.

Take L4Y: the abundance fitness is -0.105 ± 0.1.

For L4G, the abundance fitness was -0.12 ± 0.043.

As to L4Q, the abundance fitness is -0.024 ± 0.081.

Consider L4D, for which the abundance fitness was -0.108 ± 0.073.

Regarding L4E, the abundance fitness was -0.143 ± 0.076.

In the case of P11H, the abundance fitness is -0.586 ± 0.12.

On to R25G, for which the abundance fitness is -0.265 ± 0.046.

As for R25T, the abundance fitness is -0.068 ± 0.043.

As for R25D, the abundance fitness is -0.287 ± 0.064.

R25Q: the abundance fitness was -0.187 ± 0.063.

In the case of R25A, the abundance fitness was -0.301 ± 0.047.

Take R25V: the abundance fitness was -0.54 ± 0.045.

On to E17S, for which the abundance fitness was -0.246 ± 0.055.

Take E17K: the abundance fitness was -0.571 ± 0.051.

For N5M, the abundance fitness is 0.01 ± 0.087.

Turning to N5G, the abundance fitness is -0.175 ± 0.063.

As for N5C, the abundance fitness was -0.04 ± 0.08.

For the variant N5H, the abundance fitness was 0.008 ± 0.096.

Turning to N5Q, the abundance fitness is -0.267 ± 0.085.

Take N5K: the abundance fitness was -0.247 ± 0.072.

Turning to N5V, the abundance fitness is -0.075 ± 0.061.

N5P: the abundance fitness is -0.487 ± 0.062.

Consider N5L, for which the abundance fitness was -0.212 ± 0.055.

Consider S33M, for which the abundance fitness was -0.279 ± 0.11.

For S33I, the abundance fitness was -0.42 ± 0.061.

For the variant S33E, the abundance fitness was -0.067 ± 0.065.

For the variant S33V, the abundance fitness was -0.385 ± 0.044.

Take N32R: the abundance fitness is -0.044 ± 0.053.

As to N32T, the abundance fitness was -0.035 ± 0.084.

For N32Q, the abundance fitness is -0.18 ± 0.073.

Turning to N32C, the abundance fitness was -0.312 ± 0.066.

As for N32P, the abundance fitness was -0.594 ± 0.096.

With N32A, the abundance fitness was -0.339 ± 0.073.

In the case of P13I, the abundance fitness is -0.933 ± 0.14.

P13D: the abundance fitness was -0.322 ± 0.095.

Consider P13Y, for which the abundance fitness is -0.023 ± 0.1.

For R42P, the abundance fitness is -0.474 ± 0.083.

Take R42F: the abundance fitness was -1.09 ± 0.19.

For R42D, the abundance fitness is -1.15 ± 0.25.

With H21W, the abundance fitness was -0.051 ± 0.077.

As for H21R, the abundance fitness is -0.149 ± 0.064.

On to H21N, for which the abundance fitness was -0.244 ± 0.11.

In the case of T36E, the abundance fitness was -0.119 ± 0.049.

Turning to T36M, the abundance fitness is -0.208 ± 0.068.

In the case of T36G, the abundance fitness is -0.224 ± 0.048.

T36V: the abundance fitness is -0.263 ± 0.045.

In the case of D40F, the abundance fitness was -0.566 ± 0.11.

As to D40T, the abundance fitness was -0.919 ± 0.11.

On to D40H, for which the abundance fitness was -0.16 ± 0.054.

Regarding D40V, the abundance fitness was -0.706 ± 0.052.

For D40A, the abundance fitness is -0.528 ± 0.052.

Turning to D40I, the abundance fitness is -0.574 ± 0.13.

As to T49L, the abundance fitness was -0.104 ± 0.052.

T49V: the abundance fitness is -0.198 ± 0.061.

Consider T49F, for which the abundance fitness is -0.165 ± 0.068.

For T49P, the abundance fitness was -0.135 ± 0.071.

Turning to G15E, the abundance fitness is -0.425 ± 0.079.

Turning to G15M, the abundance fitness was -0.406 ± 0.051.

With G15N, the abundance fitness is -0.018 ± 0.084.

For the variant G15P, the abundance fitness is -0.471 ± 0.05.

Turning to G50P, the abundance fitness is -0.213 ± 0.17.

On to G50V, for which the abundance fitness is -0.064 ± 0.1.

As for L12Q, the abundance fitness was -0.773 ± 0.1.

Turning to P46C, the abundance fitness was -0.098 ± 0.046.

As for P46V, the abundance fitness is -0.014 ± 0.064.

On to Q44R, for which the abundance fitness was -0.039 ± 0.041.

As for Q44S, the abundance fitness was -0.054 ± 0.053.

As to Q44Y, the abundance fitness was -0.336 ± 0.12.

Consider L22S, for which the abundance fitness was 0.154 ± 0.054.

L22G: the abundance fitness came to 0.085 ± 0.043.

With L22V, the abundance fitness turned out to be 0.089 ± 0.043.

On to L22W, for which the abundance fitness is -0.167 ± 0.069.

As for P51G, the abundance fitness was determined as 0.13 ± 0.21.

As to P51C, the abundance fitness was -0.232 ± 0.098.

For the variant P51R, the abundance fitness was -0.345 ± 0.25.

As for G10N, the abundance fitness was determined as 0.139 ± 0.092.

On to G10W, for which the abundance fitness was -0.433 ± 0.048.

On to G10A, for which the abundance fitness is -0.076 ± 0.041.

In the case of G10T, the abundance fitness was -0.15 ± 0.074.

As for G10H, the abundance fitness was -0.53 ± 0.12.

For the variant G10C, the abundance fitness is -0.28 ± 0.079.

Turning to P41Y, the abundance fitness was -1.15 ± 0.28.

In the case of P41N, the abundance fitness was -0.86 ± 0.17.

For P14I, the abundance fitness was -0.227 ± 0.066.

Consider P14T, for which the abundance fitness was -0.118 ± 0.068.

For the variant P14R, the abundance fitness was -0.085 ± 0.049.

As for F27S, the abundance fitness is -0.092 ± 0.051.

As for I29R, the abundance fitness is -0.271 ± 0.046.

As to I29D, the abundance fitness is -0.422 ± 0.082.

In the case of I29C, the abundance fitness is -0.124 ± 0.075.

For I29Y, the abundance fitness was -0.017 ± 0.098.

For the variant I29G, the abundance fitness was -0.482 ± 0.042.

Turning to T2E, the abundance fitness was -0.1 ± 0.061.

For the variant T2A, the abundance fitness was -0.223 ± 0.051.

For T2S, the abundance fitness is -0.023 ± 0.046.

On to T2W, for which the abundance fitness was -0.699 ± 0.062.

(Values after the Human Domainome abundance scans (Beltran et al. 2025).)
